# Experiment: soluble fraction after stress (log2 fold change); higher = more stays soluble; pooled small domains, quantitative proteomics
# Settings: stress: 50 degC
# How it was run: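 Pooled custom libraries of small protein domains were measured in a high-throughput format, with quantitative proteomics as the read-out. Each library was stressed at 50°C. Aggregation propensity is given as the base-two logarithm of the fold change in how much of each protein stays soluble after the stress. Higher values mean a larger share of the protein remains in solution.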
row,Sequence,soluble fraction (log2)
1,HMNKNQGVTTTNLNFRKSASTSSLVLYTIPKNTTLDILDKLPSGWYKVKYKGLTGYVSGSYV,-1.37
2,HMDSYADVLSDYRGKYKTNTISGLKGLRDKIREDMLAAADSLDFEKAALLRDEMNDLNKKIELKEKT,0.505
3,HMRTNVDISPKILEWVLSQVRNRTTNDVIETIQIWIKGEKPPTFNQVEKISKATGVPLGYFFLKTPPVED,-0.805
4,HMDFVKGDTVVFIDAFMPDHLMTIHKVQGEGILLDGNHKFALAHLIRHASTVELNAKRRLSLTEQS,-2.05
5,HMSVHSAELKKLKAHLLGIIGRELETQPSTENREEMVRQILHQSYESLRLNLPMQLKEELFNEILAEVL,0.353
6,HMAFKDDDVQKAYDRYMDRYGELSVLYSDNGLKVDDDLFYKNNIPPNGKFTKEFFDELYELVNMEFINNY,-0.0827
7,HMTFPYTSLKDAPKNMKEIDGVPLTLDQVNQIAKVADSIGVSKEKNGYAIAKSQFKKSHHIENNRWVKNK,0.0239
8,HMDPLASLTPREREVLSLMAQGLSNLAVAERLVVSAGAVEKHISSIFTKLDLAPSEHEHRRVLAVLRYVAG,-3.2
9,HMSATVLVHVLGEVRKPGVVSLPEGSRVQDAITAAGGLTSRAKPGDLNLAARVSDGAQLVIGRSGSQVRTT,-0.0286
10,HMNSTVKVPNVVGMSVPQAKALLEQNHLLVQGIREVSTDKAPAGIVINQLPYSDAEVKEERHIYLTVSKGK,≥ 0.62
11,HMHSFFGDNIKKLRTAKKMSQEQLADIFGITKAGISYWETGRSEPNFATVQKLADFFGVTTSDLLGEA,-0.194
12,HMEVLTEPKVQSIDTHGEKSTFVIESPNPLQPDEIAKLVGADGISVRVDRTWLKSHRDSTWTYSILTVS,-0.00748
13,HMRSKTSYAVWTPIQIDAGSQMQALQSKGFNTVLMEGGISVGIRSDKAQAQALLNRLQGAGFTGQLREVN,-0.183
14,HMDSDFIKIEVLFNERNRLDLKAMMEASGFTDRGQFLSIMADLTGDENWDRNLDRGDIFYLPRSFTI,-1.22
15,HMAVSSHAVKQRIRSLIQAEDPAAPLSDEALRLALSALGVDVSRRVIAKYRAELNIPSSSQRKK,0.045
16,HMVKIVWSKEGPYVGTRVRRYFSQGPVDGTVVMYAKPQKGDDVALWRISHDDGDEEDLEEQELRLAID,-1.65
17,HMTMQTAEQESRLEQKLIDLSVGIDRFEGYSRPHGQLIASIADRIGTRLGMAAHDRFYMQQAAL,0.107
18,HMNTNDFTIGTRVRTTKKGNGSSDGTSNTARSGIEGTITRIIPEAKYPYLVSTTVPMGWYKKDALEK,0.0875
19,HMGRSTQVPGVEKMTYSQAVQLLHDHGFRVDIRDSLYRDDIKPGHVIEQFPKAKSIVKPGRKIFLYINAV,-1.32
20,HMLISYRVDALANEAGLSVDTIRYYQKLGILDPPKRTGRHSEYSPDHLERLIEIRRLADAGLTLSQISEI,-2.46
21,HMEPPAPAPDIPYPSRVTVRREVDGWPHYYGTWTRTPPVLGYEGIWLVGVSLDGKVQFVPVDDVTIA,-0.627
22,HMTESIHVGSKVTINNNAKRWATGQNIYSGVKGKTYTVIQMNGSRLLLDKVISWINKGDVHLPGS,-1.64
23,HMNNDFIVKSTDSHKVNLRSQPDTHADIIKRLDDHTIVEKLKTVRKNWYLVQLKDTTTQGYVHKSQLERV,-0.0413
24,HMKKQLTISDGDWAGKVSSMLEDMGVINSASEFDKYLSDNGYSNVIKSGTYDVSPEDTFQELAEKIT,0.414
25,HMSEPIYTQLKEILTQKIVNGEFPPGARLPSEYELTELYHISRSTVRLALKELEASGMIVRRRGKGTFVSS,-1.76

row,Sequence,soluble fraction (log2)
1,HMLLSTHVVVAKEDVQIGTRLQPAMLQVVDWPSASPLKNPLTSIEQATDRVVNMPLVKGEPISMSKLAAKG,0.00241
2,HMDSNFNYELVGFRLDDMGLNSSVIVKRNNQEFVIQKGDLLENKYLLNSVTKKNINFSYLGKNYQI,-0.789
3,HMLSYFKIIKNGLVREGPASYYKIAENLEIGTIVQAFEKHDDWYLIKTHSGRIGWIVASDVTPQV,-0.245
4,HMSDAIQLEQKIGLEAIEWYLALSEQTDDKLLYQQWQSWLAADPQHQLAWSRIEQVNHGLNTL,-0.706
5,HMRLGQLQSVEEPKFIEVHSGKQGDIGEQTIVEYEIDAKYATGDATINLKLLFRDGLFEIYNFNFSSEALL,0.0828
6,HMDDVIEVEGKVVEVLPNTKFIVELANSHKITAHISGKLRMNYIRIMKGDNVTVEMSPYDLTKGRIIWRS,-0.00397
7,HMLSVKEQTYQIIKEKILNQEYPAGARININELAEELGISNSPIREALSLLEQQGLVISNRSSGATVT,0.00507
8,HMVTDSGEIEKLVDEVIDNNPDQVQQFREGKQQVLSYLVGQAMKLSRGKANPNQVNQFLRDKL,0.291
9,HMIENITIELNKKALALDFELNKDLPEGVLETIPTLVSLMVRFDPLTVSYHFLRDYIDALLESNLNVDL,-0.0273
10,HMGAGLKIGNDHEYANYLEYKVSVEKYAPGAILGEIKQKGIQFNTTISKTTFYRYITDGVFLTITNADLPV,0.223
11,HMTPATVVIPKVAGQTVAEAKETLKNANFEIGEEKDESSDTVEEGRVIRTDPESGTNRKEGTKINLIVSS,-0.0325
12,HMKFTSEKDISLLELVKAKMGFVSNTKARNVIKIGQIMVSGKVIKIPSTLIKPGTEVELARRV,-1.66
13,HMLVDWNYLEGKRGVTTTPLTPSGKARFGDDVVNVLSDGVLVSTGTPVRVLQVLGNRVLVEPLDG,0.0957
14,HMNKSEFLNELEKRIRVLEKNEIKDILAEYSQHIDMRMGSGLSEAEAIKDFGDMDDLAAEILEAY,0.08
15,HMRKKTYEIITDDLRRMIEAGLIRPGEKLGAIDQLAAKYRVGRSTVREALSHLKALGLVESRQGGGTYVTK,0.156
16,HMIITLNIENLKRARENAGLTQTQAAQKIGVSDGTYKNYEQGKREPNGDKIVTIANAFGVTTDYLLGR,-0.334
17,HMLDTPLTARELDVLYLMRQRMSAKEIAKQLGIATMTVNRHAANLYRKLGVNTRWDAVYRAEEVGILPP,-0.992
18,HMEFSYMDQGLERYRAFLETHGHGNVPESYHELKLVNFVAHIRKLYRMNLLSEERRRALDEAGFVF,-2.17
19,HMLESVMHSRIAEIISREGTAPAHMSMQEKIRVVHKLDADGILMMKGAVAEIADQLSVSVPTIYRYLNKPQ,-1.8
20,HMKPSKTVYTTANLNLRNGASMSAAVYTSVSRGTALATTGRTTSGWTQITHRGRTLWASSKYLTTTTPP,-2.68
21,HMREVGVPNLRGLTAEEAQIVLSNAGLNLRTEPIRRVHETITVGRIAEQDPMPDLTIRSQRSVTTWLSSGP,0.317
22,HMNLGETIYNLRKEKKLSQGDLAEQLSVSRQSVSKWENNSAVPDLDKLVKLSTIFGVSLDELVKG,0.0247
23,HMGVSLNELAYRRFKQALVTLSYKPGEYLNTAQVMNDLDMGRTPINQAIHRLANEGLLQVIPRKGVMVS,-1.79
24,HMETIHEMVNRLSSEGFIKNEDGIWYLRDRRGDGTKWLKNPFFESTGEKDAFALIDHLKVNDELLSKLRK,-0.3
25,HMKRITAVISQKKGRDYYYIIVSYYLSNGKRVQRWIKTEFPINGNNKRKLEQKRIEVLQEWQDKLV,-1.3

row,Sequence,soluble fraction (log2)
1,HMDAYSYFIRTYPLVDDPLIGDIRRIFAETHDGNPAGDADVRHILWRLLFERELYPTLDEATADWY,-2.54
2,HMGETRWTYDDFGNILTEKAAPYSATEFLGKTYTYDTDNRYLKTVTDALGRTTTTLSYDKYGNPLSVMD,0.101
3,HMTYKPAADFKPSDTSSLKEGMKVEHPKFGFGTVMKMEEVGTERKARINFADFGEKTLLLSFAKLKIHEN,0.0858
4,HMEEQELQLIQFPIASGSAWAGKAVRELILPPETLLVMLIRGTETMIPKGDTMVQEGDTAVLSASAYRDD,-0.434
5,HMKQAVESAEAIFEEIARIKKLSLVKSEAEEIARKTGLQKFTIASQLLKNQHAYEMDESEIASLWDKKI,0.0237
6,HMGYTLDVAHGVTEDMNFSEAFATAREEVGPGGIFYWHGKPYGTYYENEWNAMDEEDKAEYWDAVGRTTA,-0.149
7,HMQDREKNIAEGRDIIEHEFMRLGISLSRYDLDGLASKLNVKAGDDVLAGVGAGDIRVSQIISQLG,-0.00799
8,HMSVRPMVEILRVVGSPSPVWVTWARNRAAWLYETGIRPQQRLRMADGTEVLIRLVGEFAHILVVGG,-0.31
9,HMFQYEKIKDYILTGLEEGTWQAGDKIPSEAELVMSLNVSRMTVNRAVRELANSGLLVRIPGAGTFVATE,-0.575
10,HMTTIAQNISNYRTRANMTQQQVADKLSVSHHTVSKWELGINTPSVEDMQKLAQVFGVTITELVVD,-0.239
11,HMTSLTSDEEQIINVLRAEESVYINALATKSKIPLQKLLGLLIQLEFKGLIHSLPGSHYKIV,-0.138
12,HMSVSATQMDAFVRQLRARLSSADGLDDAARLVRQDLEPFLGRFSDETERDFAAAIEQVRGSIRPVEI,0.0229
13,HMTLHDLFPQAVEFVSEKEMISTAELQRKLMISYNSAAKIIDQLLHVDFIQKSESAGKYSVLIK,-2.31
14,HMVEDIVLTDAQIEFVKQQAKNGLSAFQISEMIWPEMSVKRFSKQHVAVLDFLREYEPAYVHDSE,0.00709
15,HMPESYFEMLQKLLETYALPQEGTIYFSAADLARMPQKFEDVIEQTAQKKGGHLVVSKEPKDMDGGFVLV,-1.41
16,HMQQIQILPDGKIKLPDLSGTNMREAIEILHKGGLRMKPYGSGNAYQQKPAAGETVASGTTVEVLSL,0.0457
17,HMYVADVVGMGIKDALYILENQGLRVVFTGKGVVKNQSIAVGEKIIKGEKIVLML,-1.7
18,HMQDTVKNVFGAFTIFTDKPFAIGDTINVNGLEGTVVDVGMRSTQILGYDRRITSYPNYKITDSSIVNISS,-0.0701
19,HMIEEIPYSQFMSMLEEGKIDKAEIYQDSIIFSTKPDEQGKAGYYSIAYMKDNVLADRLYDAGVEFTPII,-0.156
20,HMGMTAPIPGVVLKVSVLPGQKVERGDELLTIEAMKMFNVMRSPSSGTIATVHIKDGDRVVQGQPLVTFA,0.025
21,HMSDPHEELMSRIARDLSIPLTRVVAEMNTIISKEFGGHIRPEGAVVILAKRSGVEFSDLLPALRENILK,-1.05
22,HMAIDINKIYSEIKKKIPNQDNHIKEILSIIWRDFNNYQNIKSRSILINGEKSSPKKEIFNIIEDNINIPV,0.0154
23,HMVEVPNVIGMTKPELTQQFVNLKLDGSGEGDVVVQQSPSEGSKVKEGSTVRVYFG,0.0119
24,HMTSPRRLYALIVEHVGKDGVMHRSDVENVLAKVESEMDVDDLLDQLEINGTIIRRQDGTWQLL,-0.197
25,HMWNKGETKIPTQAQNELIKRRQAGATWTSLSEWLKATYGIDIHRTNIQRWYDKEVYLDQEN,-0.316
